From the nanobody polyreactivity screen of Harvey et al. (2022)

Experiment: yeast display, Sf9 membrane polyspecificity reagent, FACS + sequencing; frameworks hold sequencing errors
Procedure, shortened: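 Using colony PCR, genes from sorted yeast display clones were amplified, then sequenced on MiSeq at 2 × 250 and filtered by CDR length. The clones had been stained with 10% biotinylated, detergent-solubilized Sf9 membrane reagent for 1 hour at 4 °C and sorted by FACS into low and high (top ~1%) gates on anti-HA and streptavidin fluorescence. Polyreactivity labels come from the gate of origin.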

Row | Sequence | polyreactivity (PSR sort gate)
1 | QVQLVESGGGLVQAGGSLRLSCAASGFIFYRNAMGWYRQAPGKERELVAAISQRGGRTYADSVKGRFTISRDNAKNTVYLQMNSLKPEDTAFYYCAADGARLSQTTRRFDYWGQGTQVTVSS | low polyreactivity
2 | QVQLVESGGGLVQAGGSLRLSCAASGFIFDRYAMGWYRQAPGKERELVAAITGSGGSTYYGDSVKGRFTISRDNAKNTVYLQMNSLKPEDTAVYYCNTGGRSGSPGYDYWGQGTQVTVSS | high polyreactivity
3 | QVQLGESGGGLLQAGGSLRLSCAASGRSFSVNFMGWYRQAPGKDTELVAAIDTSGGSTYYADSVKGRFTISRDNAKNTVYLQMNCLNPEHTAVYVCASGFYGYRSSCYWGQGTQVTVSS | low polyreactivity
4 | QVQLVESGGGLVQAGGSLRLSCAASGRIFGQYAMGWYRQAPGKERELVAAISWRGGTTYYADSVKGRITISRDKAKNTVYLQMNSLKPVDTAVYYCNADVWVYPYDYWGQGTQVTVSS | low polyreactivity
5 | QDQHVESGGGLVQAGGSLRLSCDASGTTIYDYVMGWYRKAPGKERELVAAITRGGSTNYADSVKGRFTISRDNAKNTVYLQMNRLKPEDTAVYYCAARPCIWARAGYYWGQGTQVTVSS | high polyreactivity
6 | QVQLVESGGGLVQAGGSLRLSCAASGITFQYYTMGWYRQAPGKERELVAAISWSTSSTYYADSVKGRFTISRDNAKNTVYLQMNSLKPEDTAVYYCAARYTTRRYYYWGQGTQVTVSS | high polyreactivity
7 | QVQLVESGGGLVQAGGSLRLSCAASGSTFRRYTMGWYRQAPGKERELLAAISSGGSTYYADSVKGRFTISRDNAKNTVYLQMNSLNPEDTAVYYCAAKNYPLTRYWRYDYSEYYYWGQATQVTVSS | high polyreactivity
8 | QVQLVESGGGLVQAGGSLRLSCAASGRIFYLYAMGWYRQAPGKERELVAGITSGGRTNYADSVKGRFTISRDNAKNTVYLQMNSLKPEDTAVYYCAAFYWGRYTGYYWGQGTQVTVSS | high polyreactivity
9 | QVQLVESGVGLVQAGGSLRLSCAASGIIFDDYAMGWYRQAPGKERELVAGINESGDSTYYADSVKGRFTISRDNAKNTVYLQMNSLKPEDTAVYYCAAQLYYWWYDYWGQGTQVTVSS | high polyreactivity
10 | QVQLVESGGGLVQAGGSLRLSCAASGRIFARNAMGWYRQAPGKERELVAAISWSGGRTYYADSVKGRFTISRDNAKNTVYLQMNSLKPEDTAVYYCAADHYPWWAWEFDYWGQGTQVTVSS | low polyreactivity
11 | QVQLVESVGGLVQEGGSLRLSCAASGSNFQWYAMGWYRQAPGKERELVAAIRYSGDSTYYADSVKGRFTISRDNAKNTDYLQMNSLKPEDTAVYYCAAEATTRWLLYNYWGQGTQVTVSS | high polyreactivity
12 | QVQLVESGGGLVQAGGSLRLSCAASGSTFFYYAMGWYRQAPGKERELVAAITSSGGRTYYADSVKGRFTISRDNAKNTVYLQMNSLKPEDTAVYYCAARDYRQSRYEYWGQGTQVTVSS | high polyreactivity
13 | QDQLVESGGGLVQAGGSLRLSCAASGSTFKYYGMGWYRQAPGKERELVAAITSGGSTYDADSVKGRFTISRDNAKNTVYLQMNSLKPEDTAVYYCNTTAYSPTPYDYWGQGTQVTVSS | low polyreactivity
14 | QVQLVESGGGLVQAGGSLRLSCAASGRIFSRYALGWYSPEPGKERELVAAIRSNGGRTYYADSVKGRFTISRDNAKNTVYLQMNSLKPEDTAVYYCAAAGGGKVSYRDYDYWGQGTQVTVSS | high polyreactivity
15 | QVQLVESGGGLVQAGGSLRLSCAASGGIFTGYAMGWYRQAPGKERELVAAISSGGTTYYADSVKGRFTISRDNAKITVHLQMNSLKPEDTAVYYCAAGFYLRAVWMDYWGQGTQVTVSS | high polyreactivity
16 | QVQLVESGGGLVHAGGSLRLSCAASGSTFDGYTMGWYRQAPGTERELVAAITDSGGSTYYADSVKGRFTISRDKAKNTVYLQMNSQKPEDTAVYYFAAAVPELYEVRYHDDYWGQGTQVTVSS | low polyreactivity
17 | QVQLVESGGGLVQAGGSLRLSCAASGYIFVRNAMGWYRQAPGKERELVAAISGSGGSTYYADSVKGRFTISRDNAKNTVYLQMNSLKPEDTAVYYFAADYATVTWRGIAYDYWGQGTQVSVSS | low polyreactivity
18 | QVQLVESGGGLVQAGGSLRLSCAASRSTFNYYTMGWYRQAPGKERELVAAISRGGSTYYADSVKGRFTISRDNAKNTVYLQMNSLKPEDTAVYYCAATVYPRYFRKYDYWGQGTQVTVSS | high polyreactivity
19 | QVQLVESGGGLVQAGGSLRLSCAASGSIFTYNAMGWYRQAPGKERELVAAITRSGGRTYYADSVKGRFTISRDTAKNTVYLQMNSLKPEATAVYYCNTLRVGWGQGTQVTVSS | high polyreactivity
20 | QVQLVESGGGLVQAGGSLRLSCAASGNTLTYNVMGWYRQAPGKDWDLVAAISGRGGRTYYADSVKGRFTISRDNAKNTVYLQMNSLKPEDTAVYYCAATSRNGESGGFYYWGQGTQVTVSS | high polyreactivity
21 | QVHLVESGGGLVQAGGSLRLSCAASGRTSIFNAMGWYRPAPGKERELVAAITARGASTYYADSVKGRFTISRDNAKNTVYLQKNSLKPDDTAVYYCAARDHAFRYYRNPFKGKYDYWGQGTQVTVSS | low polyreactivity
22 | QDQLVESRGVLVQAGGSLRLSCAASGSTFEANAMGWYRQAPGKERELVAVITWTGGSTYYADSVKGRFTISRDNAKNTVYLQMNSLKPEDTAVYYCAADGVVPGRFFWPAHEYDYWGQGTQVTVSS | low polyreactivity

Row | Sequence | polyreactivity (PSR sort gate)
23 | QVQLVESGGGLVQAGGSLRLSCAASGSNFPHYTMGWYRQAPAKERELVAAISNYGSSTYYADSVKGRFTISRDNAKNTVYLQMNSLKPEDTAVYYCNADDYGYSPGVNYWGQGTQVTVSS | low polyreactivity
24 | QVQLVESGGGLVQAGGSLRLSCAASGGTFNGYAMGWYRQAPGKERELVAAITSGGGSTYADSVKGRFTISRDNAKNTVYLQMNSLKTEDTAVYYCNADQWDEWFWDYDYWGQGTQVTVSS | low polyreactivity
25 | QVQLVESGGGLVQAGGSLRLSCAASGSIFTFYAMGWYRQAPGKEREVVARITNGGNTNYADSGKGRFTISRDNAKNTVYLQMNSLKPEDTEVYYCAARWYWGWTRGDYWGQRTQVTVSS | high polyreactivity
26 | QVQLVESGGGLVQEGGSLRLSCAASGRIFTPYAMGWYRQAPGKERELVAVIRDGSTYYADSVKGRFTISRDNAKNTVYLQMNSLKPEDTAVYYCRYDIWVWWSGAYDYWGQGTQVTVSS | low polyreactivity
27 | QVQLVESGGGLVQAGGSLRLSCAASGRIFKRYAMGWYRQAPGKERELVATITNGGRTSYADSVKGRFTISRDNAKNTVYLQMNSLKPEDTAVYYCNAYGQTSRPLVYGWRYDYWGQGTQVTVSS | high polyreactivity
28 | QVQLVESGGGLVQAGASLRLSCAASGRTIYANAMGWYIQAPGKERELVAAISRRGGNTYYADSVKGRFTISRDNAKNTVYLQMNRLKPEDTAVYYCYAYGGGDYWGQGTQVTVSS | high polyreactivity
29 | QVQLVESGGGLVQAGGSLRLSCAASGFTFFKYAMGWYRQAPGKERELVAAISSSGGSTYYADSVKGRFTISRDNAKNTVYLQMNSLKPEDTAVYYCNRPAAVYFKLVTAYDYWGQGTQVTVSS | high polyreactivity
30 | QVQLVESGGGLVQAGGSLRLSCAASGSIFDPYGMGWYRQAPGKERELVAAISSSDGSTYYADSVKGRFTISRDNAKNTVYLQMNSLKPEDTAVYFCAAETYGTNSSNTVYRWKYDYWGQGTQVTVSS | low polyreactivity
31 | QVQLVESGGGLDQAGGSLRLSCAASGRTFTGNAMGWYRQAPGKERELVAAISSRGSSTYYADSVKGRFTISRDNAKNTVYLQMNSLKPEDTAVYYCAAVWPRPKYVYESDYWGQGTQVTVSS | high polyreactivity
32 | QVQLVETGGGLVQAGGSLRLSCAASGSIFYTNAMGWYRQAPGKERELVAVITASGGSTYYADSVKGRFTISRDNAKNTVYLQMNSLKPEDTAVYYCAADPVFNYDYWGQGTQVTVSS | low polyreactivity
33 | QVQLVESGGGLVQAGGSLSLSWAASGFILKINTMGWYRPAPRKERDLVADITESGGNTYADSEKWRFTISRDNAKNTVYLQMNSLKPEVTAVYYCNDDIYISPLVQVSKGYDYWGQGTQVTVSS | low polyreactivity
34 | QVQLVESGGGLVQAGGSLRLSCAASGGTFFLYAMGWYRQAPGTERELVADISSGDSTNYADSVKGRFTISRDNAKNTVYLQMNSLKPEDTAVYYCAADGKLEYVNGYNLYYWGQGTQVTVSS | low polyreactivity
35 | QVQLVESGGGLVQAGGSLRLSCAASGSTFYKYAMGWYRQAPGKERELVAAISASGGSTYYADSVKVRFTISRDNAKNTVYLQMNSLNPEDTAVYYCAKASAYSAYADHDYYWGQGTQVTVSS | high polyreactivity
36 | QVQLVESGGGLVQAGGSLRLSCAASGRIFYYYDMGWYRQAPGKARELVAAITSAGITYYADSVKGRFTISRDNAKNTVYLQMNSLKPEDTAVYYCAVEFYDKRWPYRGGYWGQGTQVTVSS | low polyreactivity
37 | QVQLVESGGGLVQAGGSLRLSCAASGSISTYNDSGWYRQAPGKEREFVASITLSTGRTDYADSVKGRFTISRDNAKNTVYLQMNSLKPEETAVYVCSVRDYARKYLTSFDYWGQGTQVTVSS | high polyreactivity
38 | QVQLVESGGGLVQAGGSLRLSCSAYGYTFSHYAMGWYRQAPGKERELVAGITWSGGSTYYADSVKGRYTISRDNAKNTVYLQMNSLKPEDTSVYYCAAKYYWYYSYSGIPLFDYWGQGTQVTVSS | low polyreactivity
39 | QVQLVESGGGLVQAGGSLRLSCAASGRNFYHYAMGWYRQAPGKEREFVAAISVSGGRTYYADSVKGRFTISRDNAKNTVYLQMNSLKPEDTAVYYCAAEPEWPYGRFDYWGQGTQVTVSS | high polyreactivity
40 | QVQLVESGGGLVQAGGSLRLSCAASGITFYVHAMGWYRQAPGKERELVASITWSGGSTYYADSVKGRFTISRDNAKNTVYLQMNSLKPEDTAVYYCAHVLYRAYEYWGQGTQVTVSS | low polyreactivity
41 | QVQLVESGGGLVQAGGSLRLSCAASGSTFPFYDMGWYRQAPGKERELVAAIRSGGSTYADSVKGRFTISRDNAKNTVYLQMNSLKPEDTAVYYCAKRCPSNRYSRYRVKYDYWGQGSQVTVSS | low polyreactivity
42 | QVQLVESGGGIVQAGGSLRLICAASGSIFSSYVMGWYRQAPGKERELVAAITSRGGSTYYADSVKGRFTISRDNAKNTVYLQMNSLKPEDTAVYYCAKGGTTWYWSGYRSIYFRYDYWGQGTQVTVSS | high polyreactivity
43 | QVQLVESGGGLVQAGGSLRLSCAASGRIFWPYAMGWYRQAPGKERELVAAISRGGSTYYADSVKGRFTISRDNAKNTVYLQINSLKPEDTAVYYCAVAFRGSYRPAYYYWRQGTQVTVSS | high polyreactivity
